In patent US20170275666A1, “Methods for Preparing Rebaudioside I and Uses” (The Coca-Cola Company, priority 2014, published 2017):
Residue numbers refer to the chain shown, from its start.

B1: UGT76G1var33: UGT76G1 variant, mutations A33G_R334H_Y397Q (protein, UniProt Q6VAB4 1-458, looked up, variant A33G R334H Y397Q)
UDP-glycosyltransferase 76G1: MENKTETTVRRRRRIILFPVPFQGHINPILQLGNVLYSKGFSITIFHTNFNKPKTSNYPHFTFRFILDNDPQDERISNLPTHGPLAGMRIPIINEHGADELRRELELLMLASEEDEEVSCLITDALWYFAQSVADSLNLRRLVLMTSSLFNFHAHVSLPQFDELGYLDPDDKTRLEEQASGFPMLKVKDIKSAYSNWQILKEILGKMIKQTKASSGVIWNSFKELEESELETVIREIPAPSFLIPLPKHLTASSSSLLDHDRTVFQWLDQQPPSSVLYVSFGSTSEVDEKDFLEIARGLVDSKQSFLWVVRPGFVKGSTWVEPLPDGFLGERGHIVKWVPQQEVLAHGAIGAFWTHSGWNSTLESVCEGVPMIFSDFGLDQPLNARYMSDVLKVGVQLENGWERGEIANAIRRVMVDEEGEYIRQNARVLKQKADVSLMKGGSSYESLESLVSYISSL
B2: UGT76G1var34: UGT76G1 variant, mutations I43V_T284I_I295T (protein, UniProt Q6VAB4 1-458, looked up, variant I43V T284I I295T)
UDP-glycosyltransferase 76G1: B1 UDP-glycosyltransferase 76G1 with G33A, I43V, T284I, I295T, H334R, Q397Y
B3: UGT76G1var35: UGT76G1 variant, mutations T284L_F314S_S357N (protein, UniProt Q6VAB4 1-458, looked up, variant T284L F314S S357N)
UDP-glycosyltransferase 76G1: B1 UDP-glycosyltransferase 76G1 with G33A, T284L, F314S, H334R, S357N, Q397Y
B4: UGT76G1var36: UGT76G1 variant, mutations F265L_L379A_V396F (protein, UniProt Q6VAB4 1-458, looked up, variant F265L L379A V396F)
UDP-glycosyltransferase 76G1: B1 UDP-glycosyltransferase 76G1 with G33A, F265L, H334R, L379A, V396F, Q397Y
B5: UGT76G1var37: UGT76G1 variant, mutations E229A_L379G_I407V (protein, UniProt Q6VAB4 1-458, looked up, variant E229A L379G I407V)
UDP-glycosyltransferase 76G1: B1 UDP-glycosyltransferase 76G1 with G33A, E229A, H334R, L379G, Q397Y, I407V
B6: UGT76G1var1: UGT76G1 variant, mutations E224A_F314S_R334K (protein, UniProt Q6VAB4 1-458, looked up, variant E224A F314S R334K)
UDP-glycosyltransferase 76G1: B1 UDP-glycosyltransferase 76G1 with G33A, E224A, F314S, H334K, Q397Y
B7: UGT76G1var38: UGT76G1 variant, mutations F41L_I295M_F377C (protein, UniProt Q6VAB4 1-458, looked up, variant F41L I295M F377C)
UDP-glycosyltransferase 76G1: B1 UDP-glycosyltransferase 76G1 with G33A, F41L, I295M, H334R, F377C, Q397Y
B8: UGT76G1var39: UGT76G1 variant, mutations F22Y_F41L_V366I (protein, UniProt Q6VAB4 1-458, looked up, variant F22Y F41L V366I)
UDP-glycosyltransferase 76G1: B1 UDP-glycosyltransferase 76G1 with F22Y, G33A, F41L, H334R, V366I, Q397Y
B9: UGT76G1var40: UGT76G1 variant, mutations T263S_Q266E_S375R (protein, UniProt Q6VAB4 1-458, looked up, variant T263S Q266E S375R)
UDP-glycosyltransferase 76G1: B1 UDP-glycosyltransferase 76G1 with G33A, T263S, Q266E, H334R, S375R, Q397Y
B10: UGT76G1var41: UGT76G1 variant, mutations L246F_A385T_K393G (protein, UniProt Q6VAB4 1-458, looked up, variant L246F A385T K393G)
UDP-glycosyltransferase 76G1: B1 UDP-glycosyltransferase 76G1 with G33A, L246F, H334R, A385T, K393G, Q397Y

Assay: Directed evolution of UGT76G1, conversion of Rebaudioside D to Rebaudioside M (round 1)
Format: biochemical
Settings: 0.5 mM Rebaudioside D, 2.5 mM UDP-Glucose, 100 μL fresh lysate, 30° C., pH 7.2
From the text: Starting from the amino acid sequence of UGT76G1, as is described in Genbank (AAR06912.1), different mutations at various amino acid positions were identified that could alter the activity of the enzyme for the transformation of Rebaudioside D (Reb D) to Rebaudioside M (Reb M). This list of mutations, designed by DNA2.0 ProteinGPS™ strategy, was subsequently used to synthesize 96 variant genes that contained 3, 4 or 5 of these mutations that were codon-optimized for expression in E. coli. The genes were subcloned in the pET30a+ plasmid and used for transformation of E. coli BL21 (DE3) chemically competent cells. The obtained cells were grown in Petri-dishes on solid LB medium in the presence of Kanamycin. Suitable colonies were selected and allowed to grow in liquid LB medium in tubes. Glycerol was added to the suspension as cryoprotectant and 400 μL aliquots were stored at −20° C. and at −80° C.
These storage aliquots of E. coli BL21(DE3) containing the pET30a+_UGT76G1var plasmids were thawed and added to LBGKP medium (20 g/L Luria Broth Lennox; 50 mM PIPES buffer pH 7.00; 50 mM Phosphate buffer pH 7.00; 2.5 g/L glucose and 50 mg/L of Kanamycine). This culture was allowed to shake in a 96 microtiter plate at 135 rpm at 30° C. for 8 h.
3.95 mL of production medium containing 60 g/L of Overnight Express™ Instant TB medium (Novagen®), 10 g/L of glycerol and 50 mg/L of Kanamycin was inoculated with 50 μL of above described culture. In a 48 deepwell plate the resulting culture was allowed to stir at 20° C. The cultures gave significant growth and a good OD (600 nm; 1 cm) was obtained. After 44 h, the cells were harvested by centrifugation and frozen.
Lysis was performed by addition of Bugbuster® Master mix (Novagen®) to the thawed cells and the lysate was recovered by centrifugation. Activity tests were performed with 100 μL of fresh lysate that was added to a solution of Rebaudioside D (final concentration 0.5 mM), MgCl2 (final concentration 3 mM) and UDP-Glucose (final concentration 2.5 mM) in 50 mM phosphate buffer pH 7.2.
The reaction was allowed to run at 30° C. and samples were taken after 2, 4, 7 and 24 h. to determine conversion and initial rate by HPLC (CAD detection) using the analytical method that was described above for the transformation of Rebaudioside D to Rebaudioside M. The results are depicted in the following table.

Row | Molecule | Conversion Reb D to Reb M after 24 h (%) | initial rate (Reb M area/min)
1 | B1 | 1.0% | 7.5E+06 Reb M area/min
2 | B2 | 3.4% | 1.5E+06 Reb M area/min
3 | B3 | 0.5% | 1.8E+05 Reb M area/min
4 | B4 | 20.0% | 8.8E+06 Reb M area/min
5 | B5 | 39.1% | 2.8E+07 Reb M area/min
6 | B6 | 51.8% | 5.5E+07 Reb M area/min
7 | B7 | 8.2% | 3.7E+06 Reb M area/min
8 | B8 | 7.2% | 3.3E+06 Reb M area/min
9 | B9 | 47.6% | 3.3E+07 Reb M area/min
10 | B10 | 0.8% | 1.4E+06 Reb M area/min
